Experimental data taken from patent US20240400693A1.

What was measured:
Experiment in all cases: cell-based or functional assay
[1] = target: HLA-DQ2.5 on IHW09023 cells loaded with 33mer gliadin peptide (human; wheat)
[2] = target: HLA-DQ2.5 on IHW09023 cells loaded with BC hordein peptide (human; barley)
[3] = target: HLA-DQ2.5 on IHW09023 cells loaded with gamma 1 gliadin peptide (human; wheat)
[4] = target: HLA-DQ2.5 on IHW09023 cells loaded with gamma 2 gliadin peptide (human; wheat)
[5] = target: HLA-DQ2.5 on IHW09023 cells loaded with gamma 3 gliadin peptide (human; wheat)
[6] = target: HLA-DQ2.5 on IHW09023 cells loaded with gamma 4a gliadin peptide (human; wheat)
[7] = target: HLA-DQ2.5 on IHW09023 cells loaded with gamma 4d gliadin peptide (human; wheat)
[8] = target: HLA-DQ2.5 on IHW09023 cells loaded with omega1/2 gliadin peptide (human; wheat)

IC50 (ng/mL), α1a gliadin TCR, 250 nM 33mer gliadin [1]: 10.6 ng/mL
IC50 (ng/mL), α1b gliadin TCR, 250 nM 33mer gliadin [1]: 46.4 ng/mL
IC50 (ng/mL), α2 gliadin TCR, 250 nM 33mer gliadin [1]: 1.75 ng/mL
IC50 (ng/mL), BC hordein TCR, 250 nM BC hordein [2]: > 20000 ng/mL
IC50 (ng/mL), γ1 gliadin TCR, 250 nM γ1 gliadin [3]: > 20000 ng/mL
IC50 (ng/mL), γ2 gliadin TCR, 250 nM γ2 gliadin [4]: > 20000 ng/mL
IC50 (ng/mL), γ3 gliadin TCR, 100 µM γ3 gliadin [5]: 3100 ng/mL
IC50 (ng/mL), γ4a gliadin TCR, 25 µM γ4a gliadin [6]: > 20000 ng/mL
IC50 (ng/mL), γ4d gliadin TCR, 100 µM γ4d gliadin [7]: > 20000 ng/mL
IC50 (ng/mL), ω1 gliadin TCR, 25 µM ω1/2 gliadin [8]: 3.12 ng/mL
IC50 (ng/mL), ω2 gliadin TCR, 250 nM ω1/2 gliadin [8]: > 500 ng/mL
B1: DQN034425 (antibody, V domains shown)
VH: QVQLVESGGGVVQPGRSLRLSCAASGFTFSSSYWMCWVRQAPGQGLEWMGCVYGGSDTTYYASWTKGRFTISRDNSKNTLYLQMNSLRAEDTAVYYCARDPLNYYYYGELNLWGQGTLVTVSS
VL: DIQMTQSPSSLSASVGDRVTITCQATENIYSGLAWYQQKPGKAPKLLIYYVSTLASGIPARFSGSGSGTDFTLTISSLEPEDFAVYYCQTYHDISNVTFGQGTKVEIK
